{"source": "ChEMBL document CHEMBL2074186", "proteins": {"B1": {"name": "Solute carrier family 22 member 6 (Rattus norvegicus) (protein)", "chain": "MAFNDLLKQVGGVGRFQLIQVTMVVAPLLLMASHNTLQNFTAAIPPHHCRPPANANLSKDGGLEAWLPLDKQGQPESCLRFTSPQWGPPFYNGTEANGTRVTEPCIDGWVYDNSTFPSTIVTEWNLVCSHRAFRQLAQSLYMVGVLLGAMVFGYLADRLGRRKVLILNYLQTAVSGTCAAYAPNYTVYCVFRLLSGMSLASIAINCMTLNVEWMPIHTRAYVGTLIGYVYSLGQFLLAGIAYAVPHWRHLQLVVSVPFFIAFIYSWFFIESARWYSSSGRLDLTLRALQRVARINGKQEEGAKLSIEVLRTSLQKELTLSKGQASAMELLRCPTLRHLFLCLSMLWFATSFAYYGLVMDLQGFGVSMYLIQVIFGAVDLPAKFVCFLVINSMGRRPAQMASLLLAGICILVNGIIPKSHTIIRTSLAVLGKGCLASSFNCIFLYTGELYPTVIRQTGLGMGSTMARVGSIVSPLVSMTAEFYPSMPLFIFGAVPVVASAVTALLPETLGQPLPDTVQDLKSRSRGKQNQQQQEQQKQMMPLQASTQEKNGL"}}, "substrate": "Nc1ccc(C(=O)NCC(=O)O)cc1", "assay": "cells, lysate or membranes named", "data": [{"protein": "B1", "values": [{"measurement": "Km", "result": 43.2, "unit": "µM"}]}]}
